# Measured values taken from paper doi:10.1101/2023.05.30.542914 (bioRxiv, 2023).
# T1: COPB2_(1-304), N-terminal WD-repeat domain of the COPB2 coatomer subunit (S. cerevisiae, UniProt P41811 1-304)
# T1 sequence: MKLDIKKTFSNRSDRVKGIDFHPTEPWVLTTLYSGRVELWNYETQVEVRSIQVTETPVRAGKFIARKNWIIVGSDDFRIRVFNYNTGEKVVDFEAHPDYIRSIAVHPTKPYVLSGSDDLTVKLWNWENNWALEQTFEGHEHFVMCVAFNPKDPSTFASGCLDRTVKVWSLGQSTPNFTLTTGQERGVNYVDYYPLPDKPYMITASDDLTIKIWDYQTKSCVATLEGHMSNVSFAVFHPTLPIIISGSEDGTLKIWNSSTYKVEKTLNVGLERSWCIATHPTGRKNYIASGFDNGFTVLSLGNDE
# B1: Exosome Binding Peptide (EBP) of Wnt7a, 18 aa polypeptide (240-257) (peptide)
# peptide: PVRASRNKRPTFLKIKKP
# B2: Wnt_(252-257) peptide (LKIKKP), C-terminal half of the EBP (peptide)
# peptide: LKIKKP
# Molecular target: T1, COPB2_(1-304), N-terminal WD-repeat …
# Assay: ITC
row,Binder,Kd
1,B1,11.6 µM
2,B2,37.2 µM
